Sequences and labels used below:
B1: Histone acetyltransferase SAS2 (Saccharomyces cerevisiae), P40963 (parent)
chain: MARSLSQSLTATTQKLKGKKNGGKGKNKPSAKIKKTQKEMLYGILNERNIRQIQFGLNKKFSTWYGSAVYFDPETKRLGCSETKGQLSSVSNSQYWLDTLFVCEYCFKYTDDQTRFVGHVASCPFQYRVPGKIKYKSPEYTIRRVKGSKYQLFCQCLCLFTKLYLDNKSMYFKVDHYEFYIVYETGSTKPMGFFSKDLVSYQQNNLACILIFPPYQRRGLGLLLIEFSYKLSQLEGVISGPEVPLSPFGLIGYLKYWSQILCWHLIEGDLAHYDKVTLEDLSIVTGMRVNDVILTLKHLNCIGENNQIYLQSLNSWLKLHGTKRNWFKLKDEYLLIDD
partner: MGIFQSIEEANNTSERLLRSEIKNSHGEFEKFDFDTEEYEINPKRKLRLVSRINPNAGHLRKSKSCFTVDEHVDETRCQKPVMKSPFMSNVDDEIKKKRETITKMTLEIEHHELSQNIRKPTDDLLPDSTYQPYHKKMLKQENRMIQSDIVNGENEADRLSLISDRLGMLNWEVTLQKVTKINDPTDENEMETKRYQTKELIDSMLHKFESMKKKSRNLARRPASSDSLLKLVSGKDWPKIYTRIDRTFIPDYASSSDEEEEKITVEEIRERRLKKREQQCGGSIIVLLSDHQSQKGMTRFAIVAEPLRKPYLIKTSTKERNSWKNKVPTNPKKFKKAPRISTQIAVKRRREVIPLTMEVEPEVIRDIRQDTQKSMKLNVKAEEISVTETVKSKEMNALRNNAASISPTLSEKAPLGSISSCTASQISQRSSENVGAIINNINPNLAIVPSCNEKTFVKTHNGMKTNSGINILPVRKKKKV
B2: Histone acetyltransferase SAS2 (Saccharomyces cerevisiae), P40963 (parent)
chain: B1 chain

The text below walks through data of IntAct's records for PubMed 11731480.

In the first experiment the parent is B1. The conditions noted are these: with sas4_yeast SAS4, Q04003.
Take C106L: the “effect of a mutation on the interaction” value is reported as “decreasing interaction”.
The same measure, in the same setting: then P213A;P214V, with “decreasing interaction”.

In the next experiment the parent is B2. The conditions noted are these: with caf1a_yeast RLF2, Q12495.
Sequence of caf1a_yeast RLF2, Q12495 (Q12495 whole entry): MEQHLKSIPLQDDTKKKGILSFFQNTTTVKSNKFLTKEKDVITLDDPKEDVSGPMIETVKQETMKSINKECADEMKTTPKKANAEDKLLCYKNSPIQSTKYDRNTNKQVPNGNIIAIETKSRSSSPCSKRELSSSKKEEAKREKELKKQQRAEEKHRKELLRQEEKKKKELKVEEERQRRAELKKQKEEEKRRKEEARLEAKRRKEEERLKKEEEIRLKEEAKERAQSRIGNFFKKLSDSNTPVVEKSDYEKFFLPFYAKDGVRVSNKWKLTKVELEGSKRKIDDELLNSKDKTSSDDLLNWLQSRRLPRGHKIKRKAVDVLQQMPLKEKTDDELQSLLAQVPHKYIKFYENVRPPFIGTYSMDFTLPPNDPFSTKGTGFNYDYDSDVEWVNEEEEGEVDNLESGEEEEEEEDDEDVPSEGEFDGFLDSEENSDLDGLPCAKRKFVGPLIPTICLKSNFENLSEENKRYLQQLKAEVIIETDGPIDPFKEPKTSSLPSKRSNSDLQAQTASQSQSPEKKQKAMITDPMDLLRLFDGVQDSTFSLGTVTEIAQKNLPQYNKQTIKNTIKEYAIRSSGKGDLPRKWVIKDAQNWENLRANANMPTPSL
On to P213A;P214V, for which the “effect of a mutation on the interaction” value was “decreasing interaction”.
Still for that read-out and setting: then C106L, with “decreasing interaction”.
